Biological target: the molecule itself
Assay: crystal structure; L1‐Native in space group P2_(1) with the tetramer in the asymmetric unit; all other L1 structures in P6_(4)22 with one chain in the asymmetric unit and the same tetramer formed by crystallographic twofold symmetries

B1: Metallo‐β‐lactamase L1 from Stenotrophomonas maltophilia K279a (enzyme)
chain: SNASAAEAPLPQLRAYTVDASWLQPMAPLQVADHTWQIGTEDLTALLVQTAEGAVLLDGGMPQMAGHLLDNMKLRGVAPQDLRLILLSHAHADHAGPVAELKRRTGAHVAANAETAVLLARGGSNDLHFGDGITYPPASADRIIMDGEVVTVGGIAFTAHFMPGHTPGSTAWTWTDTRDGKPVRIAYADSLSAPGYQLKGNPRYPRLIEDYKRSFATVRALPCDLLLTPHPGASNWNYAVGSKASAEALTCNAYADAAEKKFDAQLARETAGTR
notes: N-terminal Ser‐Asn‐Ala cloning artifact left after TEV cleavage (numbered residues 17–19); Metallo‐β‐lactamase L1 (subclass B3), S. maltophilia K279a, residues 20-290; 88% identical to the L1 of the other strain in earlier structures; Two Zn ions per chain in the native form; Cloned in pMCSG53; also called L1 MBL; L1‐Native; not shown: His‐tag, N-terminal, cleaved
- stoichiometry N: 4

Reference: paper PMC7020990, “Structural and biochemical analysis of the metallo‐β‐lactamase L1 from emerging pathogen Stenotrophomonas maltophilia revealed the subtle but distinct di‐metal scaffold for catalytic activity” (Protein Science : A Publication of the Protein Society, 2019)
